Biological target: T1, C-TRAF2 (residues 262 to 501 of human TRAF2) (Homo sapiens, UniProt Q12933)
T1 construct: C-TRAF2 (residues 262-501) was purified and coupled to a sensor chip CM5; initiator Met added before residue 262 (N); 6xHis (C); made in house; host or cells: baculovirus in 'Tini' cells (insect cells), vector pAcSG2
T1 sequence (Q12933 262-501): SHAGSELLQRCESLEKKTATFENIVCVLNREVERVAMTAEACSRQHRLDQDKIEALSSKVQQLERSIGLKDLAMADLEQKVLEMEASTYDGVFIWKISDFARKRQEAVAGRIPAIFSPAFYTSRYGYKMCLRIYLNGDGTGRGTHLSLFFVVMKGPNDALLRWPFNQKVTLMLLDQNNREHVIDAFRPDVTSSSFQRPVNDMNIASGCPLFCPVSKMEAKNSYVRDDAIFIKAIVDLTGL
Experiment: BIAcore surface plasmon resonance binding to immobilised C-TRAF2
Conditions: C-TRAF2 coupled to CM5 chip, read-out: Kd of the interaction between N-TRADD and C-TRAF2
Description: C-TRAF2 and N-TRADD binding studies: The affinity of wild-type N-TRADD and C-TRAF2 was measured by surface plasma resonance using a BIAcore 2000 system (Pharmacia Biosensor AB). C-TRAF2 (residues 262-501) was purified and coupled to a sensor chip CM5 by amine coupling at pH=5.0 to get about 800, 1500 and 5500 response units on three different flow cells. A constant flow (20 μL/min) of purified N-TRADD protein in 10 mM Hepes, pH=7.4, 150 mM NaCl, 3.4 mM EDTA and 0.05% P20 surfactant at 8 different concentrations from 650 μM to 84 μM was applied over the protein coupled chip for 2 min to analyze the association. Binding constants were obtained from the BIAevaluation software.
The ^1H-^15N HSQC of N-TRADD was used as a tool to map the binding interface with C-TRAF2, since the chemical shifts of contact residues will be perturbed upon complex formation. […] The C-TRAF2 (residues 262-501) used in the instant HSQC titration experiment (at 120 μM) is also a trimer, as determined by size exclusion chromatography. […] N-TRADD Mutagenesis and interactions between C-TRAF2 and N-TRADD: In order to further characterize the amino acids in N-TRADD that are involved in C-TRAF2 recognition, site directed mutants of N-TRADD were prepared and evaluated for their ability to bind C-TRAF2. […]
The affinity of N-TRADD mutants to C-TRAF2 was measured by BIAcore. […]

B1: N-TRADD: N-terminal domain (amino acid residues 1-169, SEQ ID NO:1) of human TNFR-1 associated death domain protein (protein)
chain: MAAGQNGHEWVGSAYLFVESSLDKVVLSDAYAHPQQKVAVYRALQAALAESGGSPDVLQMLKIHRSDPQLIVQLRFCGRQPCGRFLRAYREGALRAALQRSLAAALAQHSVPLQLELRAGAERLDALLADEERCLSCILAQQPDRLRDEELAELEDALRNLKCGSGAR
Kd: 6 µM

Reference: patent publication US7460961B2, “N-TRADD active site and uses thereof” (Genetics Institute, LLC, priority 2000, dated 2008)
